Measured values reported in PMC9730451.

Target: MGAT1 (GnT1) (UniProt P26572)
Assay: co-immunoprecipitation, western blot
Conditions: reference: wild type, mitotic; sites S12

- binding against the reference: stronger
Substance: MAN1A1 (Golgi α-1,2-mannosidase IA) (from UniProt P33908) S12A, mitotic
